In PMC6969876, “NADPH biosensor-based identification of an alcohol dehydrogenase variant with improved catalytic properties caused by a single charge reversal at the protein surface” (AMB Express, 2020) one finds stoichiometry N data, which are given here for one substance.

One may read the stoichiometry N as the number of molecules, sites or subunits per partner or assembly.

The experiment deals with LbADH^K71E, variant of the NADPH-dependent alcohol dehydrogenase of Lactobacillus brevis, with N-terminal Strep-tag II (Lactobacillus brevis). As to the kind of experiment: SEC; Superdex 200 increase 10/300 GL, buffer A (50 mM triethanolamine hydrochloride, 1 mM MgCl2, pH 7.0), 0.75 mL/min; apparent native mass from a calibration curve with carbonic anhydrase, bovine serum albumin, alcohol dehydrogenase and beta-amylase; affinity-purified protein loaded. On the technique in general: SEC sorts molecules by how far they enter the pores of the column.

For “LbADH^K71E, variant of the NADPH-dependent alcohol dehydrogenase of Lactobacillus brevis, with N-terminal Strep-tag II (enzyme)”, the stoichiometry N was determined as 4.
